{"source": "patent US20220332769A1", "assay_in_all_cases": "cell-based or functional assay", "key": {"[1]": {"molecular_target": "SARS CoV-1 spike on pseudotyped lentivirus (CoV-1 PVP) (SARS CoV-1) (UniProt P59594)"}, "[2]": {"molecular_target": "Spike protein of live SARS CoV-2 virus (original USA-WA1/2020 strain) (SARS CoV-2) (UniProt P0DTC2)"}, "[3]": {"molecular_target": "MERS spike on pseudotyped lentivirus (MERS-PVP) (MERS coronavirus) (UniProt K9N5Q8)"}}}
{"substance": "ACE2-VGTM MVP (decoy multivalent particle displaying ACE2 fused with VSVG transmembrane domain)", "values": [{"measurement": "IC50, CoV-1 pseudovirus microneutralization assay, 293T/ACE2 target cells", "setting": "[1]", "value": 0.13, "unit": "pM"}, {"measurement": "IC50, CoV-1 pseudovirus neutralization assay, VERO-E6 target cells", "setting": "[1]", "value": 0.44, "unit": "pM"}, {"measurement": "IC50, live CoV-2 virus microneutralization assay", "setting": "[2]", "value": 57, "unit": "pM"}, {"measurement": "IC50, live virus PRNT assay, USA-WA1/2020 strain", "setting": "[2]", "value": 0.98, "unit": "pM"}, {"measurement": "reduction of viral titer, live CoV-2 virus microneutralization assay", "setting": "[2]", "value": "> 6", "unit": "logs"}]}
{"substance": "HCΔ-DPP4 MVP (decoy multivalent particle displaying DPP4 extracellular domain fused to measles HCΔ18)", "values": [{"measurement": "IC50, MERS pseudovirus microneutralization assay, H1650 target cells", "setting": "[3]", "value": 2.96, "unit": "pM"}]}
{"substance": "NA75-DPP4 MVP (DPP4 extracellular domain fused to influenza neuraminidase N-terminus and transmembrane regions) (from UniProt P27487 30-766)", "values": [{"measurement": "IC50, MERS pseudovirus neutralization assay, H1650 target cells", "setting": "[3]", "value": 0.87, "unit": "pM"}]}
{"substance": "Recombinant DPP4 protein (from UniProt P27487 39-766) (receptor)", "values": [{"measurement": "IC50, MERS pseudovirus microneutralization assay, H1650 target cells", "setting": "[3]", "value": "> 48000", "unit": "pM"}]}
